Source: patent US20250092119A1

Target: human neutrophil elastase (human) (UniProt P08246)
Test: cell-based or functional assay
Conditions: scale: moles of AAT polypeptide per mole of protease

UniProt P08246, sequence (P08246 30-247 limits assumed): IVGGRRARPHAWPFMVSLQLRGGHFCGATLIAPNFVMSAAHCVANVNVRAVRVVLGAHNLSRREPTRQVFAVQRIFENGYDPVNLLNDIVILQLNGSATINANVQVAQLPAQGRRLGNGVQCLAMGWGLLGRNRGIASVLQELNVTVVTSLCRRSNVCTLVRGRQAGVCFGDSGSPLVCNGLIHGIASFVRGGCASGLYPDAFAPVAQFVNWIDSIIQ

Substance | SI against HNE (n = 3)
F35 graft (wtAAT carrying L275F, I324V, M358I) (from UniProt P01009 41-418) | 1.11
Breach graft (wtAAT carrying S276K, T278E, T323E, D325N, K327E) (from UniProt P01009 41-418) | 1.09
Helix-F graft (wtAAT carrying G99A, Y144W, Y171A) (from UniProt P01009 41-418) | 1.35
